Test results from patent US20180155451A1 (published 2018).

T1: FcγRIIb extracellular domain with C-terminal His tag (human, UniProt P31994 43-217)
T1 construct: extracellular domain; also called FcgRIIb; 2b; not shown: His tag at the C terminus
T1 sequence (looked up): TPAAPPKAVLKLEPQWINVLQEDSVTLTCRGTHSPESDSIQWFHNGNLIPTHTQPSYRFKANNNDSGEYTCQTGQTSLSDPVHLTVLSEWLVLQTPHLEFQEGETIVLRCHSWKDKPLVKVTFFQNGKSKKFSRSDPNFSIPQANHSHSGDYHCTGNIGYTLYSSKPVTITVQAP


Target: T1, FcγRIIb extracellular domain with …
Experiment: SPR (Biacore), captured antibody, FcγR as analyte; relative to GpH7-A5/GpH7-B3/GpL16-k0 = 100

He/Con_2b (IIb binding) | Binder
379 % of HeCon Ab | GpH7-A5/GpH7-B3 variant S267_10E/GpL16-k0 (heterodimerized antibody, He Ab) (antibody, human IgG1, kappa, Anti-glypican-3 IgG1; the alteration is in the GpH7-B3 chain only; also called S267E) heavy 1: not shown heavy 2: not shown light: DIVMTQSPLSLPVTPGEPASISCQASESLVHSNRNTYLHWYLQKPGQSPQLLIYKVSNRFSGVPDRFSGSGSGTDFTLKISRVEAEDVGVYYCSQNTHVPPTFGQGTKVEIERTVAAPSVFIFPPSDEQLKSGTASVVCLLNNFYPREAKVQWKVDNALQSGNSQESVTEQDSKDSTYSLSSTLTLSKADYEKHKVYACEVTHQGLSSPVTKSFNRGEC
251 % of HeCon Ab | GpH7-A5/GpH7-B3 variant V266_06M/GpL16-k0 (heterodimerized antibody, He Ab) (antibody, human IgG1, kappa, Anti-glypican-3 IgG1; the alteration is in the GpH7-B3 chain only; also called V266M) heavy 1: not shown heavy 2: not shown light: DIVMTQSPLSLPVTPGEPASISCQASESLVHSNRNTYLHWYLQKPGQSPQLLIYKVSNRFSGVPDRFSGSGSGTDFTLKISRVEAEDVGVYYCSQNTHVPPTFGQGTKVEIERTVAAPSVFIFPPSDEQLKSGTASVVCLLNNFYPREAKVQWKVDNALQSGNSQESVTEQDSKDSTYSLSSTLTLSKADYEKHKVYACEVTHQGLSSPVTKSFNRGEC

Target: T2, FcγRIIIa extracellular domain with C-terminal His tag (human, UniProt P08637 17-208)
T2 construct: extracellular domain; also called FcgRIIIa; 3a; not shown: His tag at the C terminus
T2 sequence (P08637 17-208): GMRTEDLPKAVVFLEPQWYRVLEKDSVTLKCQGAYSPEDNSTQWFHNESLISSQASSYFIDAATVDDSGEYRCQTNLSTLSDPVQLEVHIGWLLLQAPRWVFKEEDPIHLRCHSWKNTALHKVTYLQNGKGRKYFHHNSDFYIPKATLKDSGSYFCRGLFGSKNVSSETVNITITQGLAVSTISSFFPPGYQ
Experiment: as above

He/Con_3a (IIIa binding) | Binder
91.9 % of HeCon Ab | GpH7-A5/GpH7-B3 variant S267_10E/GpL16-k0 (heterodimerized antibody, He Ab) (antibody, human IgG1, kappa, Anti-glypican-3 IgG1; the alteration is in the GpH7-B3 chain only; also called S267E) heavy 1: not shown heavy 2: not shown light: DIVMTQSPLSLPVTPGEPASISCQASESLVHSNRNTYLHWYLQKPGQSPQLLIYKVSNRFSGVPDRFSGSGSGTDFTLKISRVEAEDVGVYYCSQNTHVPPTFGQGTKVEIERTVAAPSVFIFPPSDEQLKSGTASVVCLLNNFYPREAKVQWKVDNALQSGNSQESVTEQDSKDSTYSLSSTLTLSKADYEKHKVYACEVTHQGLSSPVTKSFNRGEC
85.8 % of HeCon Ab | GpH7-A5/GpH7-B3 variant V266_06M/GpL16-k0 (heterodimerized antibody, He Ab) (antibody, human IgG1, kappa, Anti-glypican-3 IgG1; the alteration is in the GpH7-B3 chain only; also called V266M) heavy 1: not shown heavy 2: not shown light: DIVMTQSPLSLPVTPGEPASISCQASESLVHSNRNTYLHWYLQKPGQSPQLLIYKVSNRFSGVPDRFSGSGSGTDFTLKISRVEAEDVGVYYCSQNTHVPPTFGQGTKVEIERTVAAPSVFIFPPSDEQLKSGTASVVCLLNNFYPREAKVQWKVDNALQSGNSQESVTEQDSKDSTYSLSSTLTLSKADYEKHKVYACEVTHQGLSSPVTKSFNRGEC

Target: T3, FcγRIa extracellular domain with C-terminal His tag (human, UniProt P12314 16-292)
T3 construct: extracellular domain; Expressed in FreeStyle293 cells; used as analyte in Biacore; also called FcgRI; 1a; not shown: His tag at the C terminus
T3 sequence (P12314 16-292): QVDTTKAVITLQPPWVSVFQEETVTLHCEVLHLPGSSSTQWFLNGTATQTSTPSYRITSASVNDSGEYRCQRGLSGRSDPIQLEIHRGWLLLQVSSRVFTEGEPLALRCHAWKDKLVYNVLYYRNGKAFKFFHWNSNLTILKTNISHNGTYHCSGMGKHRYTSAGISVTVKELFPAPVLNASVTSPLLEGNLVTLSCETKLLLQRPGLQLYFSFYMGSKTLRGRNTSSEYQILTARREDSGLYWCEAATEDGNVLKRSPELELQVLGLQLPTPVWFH
Experiment: SPR (Biacore), captured antibody, FcγRIa analyte; relative to GpH7-B3/GpL16-k0 = 100

Binder | Ho/Con_1a
GpH7-B3 variant (T335_04F)/GpL16-k0 (antibody, human IgG1, kappa, Homodimerized; both H chains altered; also called Ho Ab T335_04F) heavy: not shown light: DIVMTQSPLSLPVTPGEPASISCQASESLVHSNRNTYLHWYLQKPGQSPQLLIYKVSNRFSGVPDRFSGSGSGTDFTLKISRVEAEDVGVYYCSQNTHVPPTFGQGTKVEIERTVAAPSVFIFPPSDEQLKSGTASVVCLLNNFYPREAKVQWKVDNALQSGNSQESVTEQDSKDSTYSLSSTLTLSKADYEKHKVYACEVTHQGLSSPVTKSFNRGEC | 105 % of control
GpH7-B3 variant (H268_01G)/GpL16-k0 (antibody, human IgG1, kappa, Homodimerized; both H chains altered; also called Ho Ab H268_01G) heavy: not shown light: DIVMTQSPLSLPVTPGEPASISCQASESLVHSNRNTYLHWYLQKPGQSPQLLIYKVSNRFSGVPDRFSGSGSGTDFTLKISRVEAEDVGVYYCSQNTHVPPTFGQGTKVEIERTVAAPSVFIFPPSDEQLKSGTASVVCLLNNFYPREAKVQWKVDNALQSGNSQESVTEQDSKDSTYSLSSTLTLSKADYEKHKVYACEVTHQGLSSPVTKSFNRGEC | 108 % of control
GpH7-B3 variant (A330_10E)/GpL16-k0 (antibody, human IgG1, kappa, Homodimerized; both H chains altered; also called Ho Ab A330_10E) heavy: not shown light: DIVMTQSPLSLPVTPGEPASISCQASESLVHSNRNTYLHWYLQKPGQSPQLLIYKVSNRFSGVPDRFSGSGSGTDFTLKISRVEAEDVGVYYCSQNTHVPPTFGQGTKVEIERTVAAPSVFIFPPSDEQLKSGTASVVCLLNNFYPREAKVQWKVDNALQSGNSQESVTEQDSKDSTYSLSSTLTLSKADYEKHKVYACEVTHQGLSSPVTKSFNRGEC | 108 % of control
GpH7-B3 variant (A330_19Q)/GpL16-k0 (antibody, human IgG1, kappa, Homodimerized; both H chains altered; also called Ho Ab A330_19Q) heavy: not shown light: DIVMTQSPLSLPVTPGEPASISCQASESLVHSNRNTYLHWYLQKPGQSPQLLIYKVSNRFSGVPDRFSGSGSGTDFTLKISRVEAEDVGVYYCSQNTHVPPTFGQGTKVEIERTVAAPSVFIFPPSDEQLKSGTASVVCLLNNFYPREAKVQWKVDNALQSGNSQESVTEQDSKDSTYSLSSTLTLSKADYEKHKVYACEVTHQGLSSPVTKSFNRGEC | 106 % of control
GpH7-B3 variant (A330_04F)/GpL16-k0 (antibody, human IgG1, kappa, Homodimerized; both H chains altered; also called Ho Ab A330_04F) heavy: not shown light: DIVMTQSPLSLPVTPGEPASISCQASESLVHSNRNTYLHWYLQKPGQSPQLLIYKVSNRFSGVPDRFSGSGSGTDFTLKISRVEAEDVGVYYCSQNTHVPPTFGQGTKVEIERTVAAPSVFIFPPSDEQLKSGTASVVCLLNNFYPREAKVQWKVDNALQSGNSQESVTEQDSKDSTYSLSSTLTLSKADYEKHKVYACEVTHQGLSSPVTKSFNRGEC | 107 % of control

Results, then the binder that gave them:

Ho/Con_1a | Binder
111 % of control | GpH7-B3 variant (I336_14T)/GpL16-k0 (antibody, human IgG1, kappa, Homodimerized; both H chains altered; also called Ho Ab I336_14T) heavy: not shown light: DIVMTQSPLSLPVTPGEPASISCQASESLVHSNRNTYLHWYLQKPGQSPQLLIYKVSNRFSGVPDRFSGSGSGTDFTLKISRVEAEDVGVYYCSQNTHVPPTFGQGTKVEIERTVAAPSVFIFPPSDEQLKSGTASVVCLLNNFYPREAKVQWKVDNALQSGNSQESVTEQDSKDSTYSLSSTLTLSKADYEKHKVYACEVTHQGLSSPVTKSFNRGEC
107 % of control | GpH7-B3 variant (I336_11K)/GpL16-k0 (antibody, human IgG1, kappa, Homodimerized; both H chains altered; also called Ho Ab I336_11K) heavy: not shown light: DIVMTQSPLSLPVTPGEPASISCQASESLVHSNRNTYLHWYLQKPGQSPQLLIYKVSNRFSGVPDRFSGSGSGTDFTLKISRVEAEDVGVYYCSQNTHVPPTFGQGTKVEIERTVAAPSVFIFPPSDEQLKSGTASVVCLLNNFYPREAKVQWKVDNALQSGNSQESVTEQDSKDSTYSLSSTLTLSKADYEKHKVYACEVTHQGLSSPVTKSFNRGEC
109 % of control | GpH7-B3 variant (I336_12R)/GpL16-k0 (antibody, human IgG1, kappa, Homodimerized; both H chains altered; also called Ho Ab I336_12R) heavy: not shown light: DIVMTQSPLSLPVTPGEPASISCQASESLVHSNRNTYLHWYLQKPGQSPQLLIYKVSNRFSGVPDRFSGSGSGTDFTLKISRVEAEDVGVYYCSQNTHVPPTFGQGTKVEIERTVAAPSVFIFPPSDEQLKSGTASVVCLLNNFYPREAKVQWKVDNALQSGNSQESVTEQDSKDSTYSLSSTLTLSKADYEKHKVYACEVTHQGLSSPVTKSFNRGEC
